Experimental data reported in patent US20220356259A1.

Columns and labels:
[1] = biological target: fusion protein in which the extracellular domain of Cynomolgus monkey GITR is fused with the domain of mouse IgG1-Fc (Cynomolgus monkey); test: ELISA, cynoGITR-muFc coated at 5 ug/ml, anti-human IgG-HRP (FIG. 7)
[2] = biological target: fusion protein in which the extracellular domain of Cynomolgus monkey GITR is fused with the domain of mouse IgG1-Fc (Cynomolgus monkey); test: ELISA, cynoGITR-muFc coated at 5 ug/ml, anti-human IgG-HRP (FIG. 8)

fusion protein in which the extracellular domain of Cynomolgus monkey GITR is fused with the domain of mouse IgG1-Fc (Cynomolgus monkey), sequence (chain, as listed by the source limits assumed, form in doubt): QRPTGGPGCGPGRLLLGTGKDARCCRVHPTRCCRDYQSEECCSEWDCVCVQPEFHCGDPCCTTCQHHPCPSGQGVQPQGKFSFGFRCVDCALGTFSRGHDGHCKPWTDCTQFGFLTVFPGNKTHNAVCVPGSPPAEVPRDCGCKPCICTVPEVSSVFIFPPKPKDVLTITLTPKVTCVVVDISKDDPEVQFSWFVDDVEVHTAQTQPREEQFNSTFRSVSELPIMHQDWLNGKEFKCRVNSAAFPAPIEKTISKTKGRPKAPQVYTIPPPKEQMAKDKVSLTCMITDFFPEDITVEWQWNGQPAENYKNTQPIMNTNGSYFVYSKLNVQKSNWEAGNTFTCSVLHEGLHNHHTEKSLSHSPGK

Row | EC50 [1] [µg/mL] | EC50 [2] [µg/mL] | Binder
1 | 0.0704 | 0.0747 | isolated antigen-binding protein C3E2 (antibody, human IgG1, kappa, V domains shown) VH: QVQLQESGPGILQPSQTLSLTCSFSGFSLSTFGMGVGWIRQPSGKGLEWLVLILWNDIKYYNPALKSLLTVSKDTSNNQVFLKIASVDTADTATYYCARVDGYYGYFDVWGTGTTVTVSS VL: DIVMTQSPLSLPVSLGDQASISCRSSQTIVHSNGNTYLEWYLQKPGQSPKLLIYKVSNRFSGVPDRFSGSGSGTDFTLKISRVEAEDLGVYYCFQGSHVPWTFGGGTKLEIKR
2 | 0.0517 |  | isolated antigen-binding protein 3E2 1-2 (antibody, human IgG1, kappa, V domains shown) VH: QVTLQESGPTLVKPTQTLTLTCTFSGFSLSTFGMGVGWIRQPPGKGLEWLVLILWNDIKYYNPALKSLLTVTKDTSKNQVVLTITNMDPVDTATYYCARVDGYYGYFDVWGQGTMVTVSS VL: DIVMTQSPLSLPVTLGQPASISCRSSQTIVHSNGNTYLEWYLQRPGQSPKLLIYKVSNRFSGVPDRFSGSGSGTDFTLKISRVEAEDVGVYYCFQGSHVPWTFGGGTKVEIKR
